Experimental data taken from patent US20120034160A1 (AbbVie / Abbott, published 2012).
Numbering of substitutions follows the chain as printed.

T1: Recombinant Human IL-17 (human, UniProt Q16552 20-155, limits assumed)
T1 sequence (looked up): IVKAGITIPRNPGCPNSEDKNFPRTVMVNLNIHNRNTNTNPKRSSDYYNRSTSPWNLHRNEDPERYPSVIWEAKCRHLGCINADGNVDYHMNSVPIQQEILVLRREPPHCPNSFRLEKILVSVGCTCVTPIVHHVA

B1: DVD1606 (bispecific antibody, human IgG1, kappa)
heavy: not shown
light: EIVLTQSPDFQSVTPKEKVTITCRASQDIGSELHWYQQKPDQPPKLLIKYASHSTSGVPSRFSGSGSGTDFTLTINGLEAEDAGTYYCHQTDSLPYTFGPGTKVDIKRTVAAPSVFIFPPDTVVTQSPAFLSVTPGEKVTITCITSTDIDVDMNWYQQKPDQPPKLLISQGNTLRPGVPSRFSSSGSGTDFTFTISSLEAEDAATYYCLQSDNLPLTFGQGTKLEIKRTVAAPSVFIFPPSDEQLKSGTASVVCLLNNFYPREAKVQWKVDNALQSGNSQESVTEQDSKDSTYSLSSTLTLSKADYEKHKVYACEVTHQGLSSPVTKSFNRGEC
B2: DVD1605 (bispecific antibody, human IgG1, kappa)
heavy: not shown
light: DTVVTQSPAFLSVTPGEKVTITCITSTDIDVDMNWYQQKPDQPPKLLISQGNTLRPGVPSRFSSSGSGTDFTFTISSLEAEDAATYYCLQSDNLPLTFGQGTKLEIKRTVAAPSVFIFPPEIVLTQSPDFQSVTPKEKVTITCRASQDIGSELHWYQQKPDQPPKLLIKYASHSTSGVPSRFSGSGSGTDFTLTINGLEAEDAGTYYCHQTDSLPYTFGPGTKVDIKRTVAAPSVFIFPPSDEQLKSGTASVVCLLNNFYPREAKVQWKVDNALQSGNSQESVTEQDSKDSTYSLSSTLTLSKADYEKHKVYACEVTHQGLSSPVTKSFNRGEC
B3: DVD1603 (bispecific antibody, human IgG1, kappa)
heavy: not shown
light: DTQVTQSPSSLSASVGDRVTITCITSTDIDVDMNWYQQKPGKPPKLLISQGNTLRPGVPSRFSSSGSGTDFTFTISSLQPEDFATYYCLQSDNLPLTFGQGTKLEIKRTVAAPSVFIFPPEIVLTQSPDFQSVTPKEKVTITCRASQDIGSELHWYQQKPDQPPKLLIKYASHSTSGVPSRFSGSGSGTDFTLTINGLEAEDAGTYYCHQTDSLPYTFGPGTKVDIKRTVAAPSVFIFPPSDEQLKSGTASVVCLLNNFYPREAKVQWKVDNALQSGNSQESVTEQDSKDSTYSLSSTLTLSKADYEKHKVYACEVTHQGLSSPVTKSFNRGEC
B4: DVD1607 (bispecific antibody, human IgG1, kappa)
heavy: not shown
light: B3 light with D1E, Q3T
B5: DVD1604 (bispecific antibody, human IgG1, kappa)
heavy: not shown
light: EIVLTQSPDFQSVTPKEKVTITCRASQDIGSELHWYQQKPDQPPKLLIKYASHSTSGVPSRFSGSGSGTDFTLTINGLEAEDAGTYYCHQTDSLPYTFGPGTKVDIKRTVAAPSVFIFPPDTQVTQSPSSLSASVGDRVTITCITSTDIDVDMNWYQQKPGKPPKLLISQGNTLRPGVPSRFSSSGSGTDFTFTISSLQPEDFATYYCLQSDNLPLTFGQGTKLEIKRTVAAPSVFIFPPSDEQLKSGTASVVCLLNNFYPREAKVQWKVDNALQSGNSQESVTEQDSKDSTYSLSSTLTLSKADYEKHKVYACEVTHQGLSSPVTKSFNRGEC
B6: DVD1608 (bispecific antibody, human IgG1, kappa)
heavy: not shown
light: B5 light with D121E, Q123T

target: T1, Recombinant Human IL-17; assay: cell-based or functional assay

| N-terminal VD IL-17 Neutralization Assay EC50 | C-terminal VD IL-17 Neutralization Assay EC50 | Binder |
| --- | --- | --- |
| 18.8 pM | – | B1 |
| – | 8.2 pM | B2 |
| – | 40.7 pM | B3 |
| – | 3.1 pM | B4 |
| 3.1 pM | – | B5 |
| 8.2 pM | – | B6 |

target: Recombinant Human IL-1β (human, UniProt P01584 117-269); assay: cell-based or functional assay

| C-Terminal VD IL-1β Neutralization Assay EC50 | N-Terminal VD IL-1β Neutralization Assay EC50 | Binder |
| --- | --- | --- |
| 1630 pM | – | B1 |
| – | 242 pM | B2 |
| – | 80.3 pM | B3 |
| – | 455 pM | B4 |
| 2030 pM | – | B5 |
| 4250 pM | – | B6 |
